Measured values published in patent US20090068736A1 (TRUSTEES OF DARTMOUTH COLLEGE, published 2009).

molecular target: Mammalian (Human) 20S Proteasome (Mammalian (Human)); test: cell-based or functional assay

| I50 (µM), inhibition of chymotrypsin-like (ChT-L) peptidase activity of 20S proteasome, N-succinyl-LLVY-AMC substrate [µM] | Binder |
| --- | --- |
| 14.5 | AARPRPPYLPR [AAR] |
| 49.4 | ARRPRPPELPR [A1E8] |
| 0.685 | RRRPRPPYLPA [A11] |
| 3.15 | RRAPRPPYLPR [A3] |
| 1.22 | RRRPRAPYLPR [A6] |
| 2.81 | ARRPRPPYLPR [A1] |
| 0.715 | RRRPRPPALPRW [A8W12] |
| 11.3 | ARAPRPPYLPR [ARA] |
| 2.62 | RRRPRPPELPRW [E8W12] |
| 2.77 | RARPRPPYLPR [A2] |
| 2.37 | RRRPRPPELPR [E8] |
| > 100 | AAAPRPPYLPR [AAA-PR11] |
| 0.782 | RRRPRPPYLAR [A10] |
| 0.595 | KRRRPPYLPR [K1] |
| 0.004 | RRRPRPPYLPRPRPPPFFPPRLPPRIPPGFPPRFPPRFP [PR39] |
| 2.65 | RRRPAPPYLPR [A5] |
| 20.1 | RAAPRPPYLPR [RAA] |
| 0.137 | RRRPRPPYGPR [G9] |
| 0.543 | RKRPRPPYLPR [K2] |
| 0.006 | RRRPRPPYLPRW [W12] |
| 0.851 | RRRPRPAYLPR [A7] |
| 4.99 | RRRARPPYLPR [A4] |
| 0.034 | RRRPRPPFLPRW [F8W12] |
| 2.71 | KKKPRPPYLPR [KKK] |
| 0.819 | RRKPRPPYLPR [K3] |
| 0.805 | RRRPRPPYLPR [PR11] |
| 6.34 | KRRPRPPELPR [K1E8] |
